Where no end group is shown, it is not given here. [ ]: non-standard residue; d: D form. pY = N[C@@H](Cc1ccc(OP(=O)(O)O)cc1)C(=O)O
Assays:
[1] = target: T1, TC.PTP (Homo sapiens, UniProt P17706); assay: Determination of TC.PTP activity in immunoprecipitates; assay type: biochemical; settings: for % Dephosphorylation: 100% = total bound radioactivity in the assay
T1 construct: made in house; host or cells: Sf9 cells (baculovirus)
T1 sequence (P17706 1-415): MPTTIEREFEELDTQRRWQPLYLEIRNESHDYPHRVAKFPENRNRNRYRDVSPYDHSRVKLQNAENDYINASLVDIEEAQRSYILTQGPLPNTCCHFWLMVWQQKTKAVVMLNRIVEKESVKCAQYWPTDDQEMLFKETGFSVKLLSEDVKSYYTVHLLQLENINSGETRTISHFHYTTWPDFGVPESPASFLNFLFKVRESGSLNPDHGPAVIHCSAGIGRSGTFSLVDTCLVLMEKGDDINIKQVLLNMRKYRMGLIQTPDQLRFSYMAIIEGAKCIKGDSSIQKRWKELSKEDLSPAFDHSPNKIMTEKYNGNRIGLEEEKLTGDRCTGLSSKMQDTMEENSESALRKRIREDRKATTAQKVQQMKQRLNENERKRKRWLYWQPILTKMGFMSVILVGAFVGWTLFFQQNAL
Experimental: Immunoprecipitations were carded out in 500 μl buffer AT containing phosphatase (in the amount indicated in the tables below), 3 μl rabbit antisera #6228 raised against the baculovirus expressed TCΔC11.PTP (Zander et al., Biochemistry 30: 6964-6970, 1991) and 20 μl protein A agarose beads. The mixture was rotated overnight at 4° C. The beads were washed three times with HNTG and tested for PTP activity. No PTP activity was detected in controls without antisera.
Phosphatase assays with ENDY(P)INASL were performed in buffer M6. Aliquots of 30 μl or 60 μl containing the phosphopeptide, the phosphatase (-beads) and effectors were incubated for 10 minutes at 30° C. The reaction was stopped by adding 200 μl of a suspension of 10% activated, acid-washed Norit A charcoal (v/v) in 0.9N HCl, 0.1M pyrophosphate and 2 mM NaH2 PO4 (according to Streuli et al., Proc. Natl. Acad. Sci. USA 86: 8698-8702, 1989). The mixture was cleared by 10-minute centrifugation and the radioactivity of 150 μl of the supernate was determined. Assays with MBP and RCML were performed as described in Tonks et al., J. Biol. Chem. 263: 6722-6730, 1988. Protein concentration was determined with BSA as standard (Bradford, Anal. Biochem. 72: 248-254, 1976).

[2] = target: T2, PTP1B (Homo sapiens, UniProt P18031); assay: Phosphatase assay with ENDY(P)INASL as substrate; assay type: biochemical; settings: non-linear regression of substrate saturation curves, mean of two experiments
T2 construct: The 37 kDa form of PTP1B; from tissue; host or cells: placenta
T2 sequence (P18031 1-321 limits assumed): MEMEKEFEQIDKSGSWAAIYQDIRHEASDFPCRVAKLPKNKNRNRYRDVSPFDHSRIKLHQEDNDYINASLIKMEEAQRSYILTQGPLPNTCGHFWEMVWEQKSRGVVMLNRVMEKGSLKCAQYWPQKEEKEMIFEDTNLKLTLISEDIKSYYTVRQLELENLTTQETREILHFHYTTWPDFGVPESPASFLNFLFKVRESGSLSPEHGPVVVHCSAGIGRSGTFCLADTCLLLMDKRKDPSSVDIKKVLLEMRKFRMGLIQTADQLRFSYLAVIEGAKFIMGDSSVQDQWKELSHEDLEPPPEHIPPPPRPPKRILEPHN
Summary of the method: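 Sf9-expressed TC.PTP, RPTPα; placental PTP1B (37 kDa form); splenic CD45. ENDY(P)INASL, buffer M6, 10 min, 30° C. Stop: Norit A charcoal in 0.9N HCl/0.1M pyrophosphate/2 mM NaH2PO4; spin, count supernate radioactivity.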

ENDY(P)INASL: ENDYINASL phosphorylated on its tyrosine residue (32P), used as PTP substrate (END[pY]INASL; also: phosphate 32P-labelled)
Lowest amount of immunoprecipitated phosphatase that could be detected with the substrate ([1]; TC.PTP immunoprecipitates on beads): 1 ng
% Dephosphorylation ([1]; immunoprecipitated TC.PTP 0.3 ng): 0%
% Dephosphorylation ([1]; immunoprecipitated TC.PTP 1 ng): 1.8%
% Dephosphorylation ([1]; immunoprecipitated TC.PTP 3 ng): 3.9%
% Dephosphorylation ([1]; immunoprecipitated TC.PTP 10 ng): 10.8%
% Dephosphorylation ([1]; immunoprecipitated TC.PTP 30 ng): 17.5%
% Dephosphorylation ([1]; immunoprecipitated TC.PTP 100 ng): 28.1%
Km [2]: 0.8 ± 0.45 µM
